Values quoted from earlier work, collected in paper PMC3471675.
Where two headings read alike, the source gives them in different places. One block for each substance: values may come before it.

Tests used:
IL-2Rβ (Homo sapiens) [1] = target: IL-2Rβ (Homo sapiens) (UniProt P14784)
γc (Homo sapiens) = γc (Homo sapiens) (UniProt P31785)
IL-7Rα (Homo sapiens) [2] = target: IL-7Rα (Homo sapiens) (UniProt P16871)
IL-2Rβ (Homo sapiens) [3] = target: IL-2Rβ (Homo sapiens) (UniProt P14784); remark: listed apart in the source
IL-7Rα (Homo sapiens) [4] = target: IL-7Rα (Homo sapiens) (UniProt P16871); remark: listed apart in the source
IL-21Rα (Homo sapiens) = IL-21Rα (Homo sapiens) (UniProt Q9HBE5)
IL-4Rα (Homo sapiens) = IL-4Rα (Homo sapiens) (UniProt P24394)
Sequence of UniProt P24394 (P24394 26-232): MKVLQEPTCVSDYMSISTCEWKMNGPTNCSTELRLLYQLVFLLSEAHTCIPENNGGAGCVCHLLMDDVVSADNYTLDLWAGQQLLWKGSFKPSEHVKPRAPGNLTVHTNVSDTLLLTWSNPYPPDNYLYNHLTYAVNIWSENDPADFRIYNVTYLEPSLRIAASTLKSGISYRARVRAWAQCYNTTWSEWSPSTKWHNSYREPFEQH

Sequence of UniProt P31785 (P31785 23-262): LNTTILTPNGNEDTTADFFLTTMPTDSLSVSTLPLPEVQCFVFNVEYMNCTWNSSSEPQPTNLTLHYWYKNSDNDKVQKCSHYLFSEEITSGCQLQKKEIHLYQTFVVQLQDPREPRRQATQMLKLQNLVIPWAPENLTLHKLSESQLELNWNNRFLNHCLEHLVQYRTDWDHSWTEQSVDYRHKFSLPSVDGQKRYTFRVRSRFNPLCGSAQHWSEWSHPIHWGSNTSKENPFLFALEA
Sequence of UniProt Q9HBE5 (Q9HBE5 20-232): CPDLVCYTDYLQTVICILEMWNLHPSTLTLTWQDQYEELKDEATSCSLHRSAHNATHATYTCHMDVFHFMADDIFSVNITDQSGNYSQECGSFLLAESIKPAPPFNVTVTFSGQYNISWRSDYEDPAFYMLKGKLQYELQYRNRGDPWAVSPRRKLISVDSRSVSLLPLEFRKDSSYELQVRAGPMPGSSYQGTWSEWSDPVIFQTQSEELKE

- Kd (IL-2Rβ (Homo sapiens) [1]): 3000 nM
Substance: IL-2Rβ (from UniProt P14784)

- Kd (γc (Homo sapiens)): 3000 nM
- Kd (IL-7Rα (Homo sapiens) [2]): 610000 nM
Substance: IL-7Rα (from UniProt P16871)

- Kd (IL-2Rβ (Homo sapiens) [3]): 530 nM
Substance: IL-2 (from UniProt P60568)

- Kd (IL-7Rα (Homo sapiens) [4]): 59 nM
Substance: IL-7 (from UniProt P13232)

- Kd (IL-21Rα (Homo sapiens)): 0.07 nM
Substance: IL-21 (from UniProt Q9HBE4)

- Kd (IL-4Rα (Homo sapiens)): 0.15 nM
Substance: IL-4 (from UniProt P05112)
